Where a chain is given by its changes, count along the chain named. Names and notes keep the numbering of the source.
B1: GLS3000 G89V one-amino acid altered one-arm antibody (CE115HA000-pE22Hh / Kn010G3 / GLS3000 G89V-kappa) (antibody, human IgG1, kappa, L234A L235A, N297A, name in Kabat numbering)
heavy: QVQLVESGGGVVQPGRSLRLSCAASGFTFSNAWMHWVRQAPGKGLEWVAQIKAKSNNYATYYAESVKGRFTISRDDSKNSLYLQMNSLKTEDTAVYYCRYVHYGAYYGVDAWGQGTTVTVSSASTKGPSVFPLAPSSKSTSGGTAALGCLVKDYFPEPVTVSWNSGALTSGVHTFPAVLQSSGLYSLSSVVTVPSSSLGTQTYICNVNHKPSNTKVDKKVEPKSCDKTHTCPPCPAPEAAGGPSVFLFPPKPKDTLMISRTPEVTCVVVDVSHEDPEVKFNWYVDGVEVHNAKTKPREEQYASTYRVVSVLTVLHQDWLNGKEYKCKVSNKALPAPIEKTISKAKGQPREPQVYTLPPSRCELTKNQVSLSCAVKGFYPSDIAVEWESNGQPENNYKTTPPVLDSDGSFFLVSKLTVDKSRWQQGNVFSCSVMHEALHNHYTQKSLSLSPDYKDDDDK
chain: EPKSSDKTHTCPPCPAPELLGGPSVFLFPPKPKDTLMISRTPEVTCVVVDVSHEDPEVKFNWYVDGVEVHNAKTKPREEQYNSTYRVVSVLTVLHQDWLNGKEYKCKVSNKALPAPIEKTISKAKGQPREPQVCTLPPSRDELTKNQVSLWCLVKGFYPSDIAVEWESNGQPENNYKTTPPVLDSDGSFFLYSKLTVDKSRWQQGNVFSCSVMHEALHNRYTQKSLSLSP
light: DIVMTQSPLSLPVTPGEPASISCRSSQSLVHSNRNTYLHWYQQKPGQAPRLLIYKVSNRFSGVPDRFSGSGSGTDFTLKISRVEAEDVGVYYCVQGTQVPYTFGQGTKLEIKRTVAAPSVFIFPPSDEQLKSGTASVVCLLNNFYPREAKVQWKVDNALQSGNSQESVTEQDSKDSTYSLSSTLTLSKADYEKHKVYACEVTHQGLSSPVTKSFNRGEC
notes: One-arm antibody; substitution position in Kabat numbering; also called L chain altered form, Kabat 89 G to V
B2: GLS3000 T92Y one-amino acid altered one-arm antibody (CE115HA000-pE22Hh / Kn010G3 / GLS3000 T92Y-kappa) (antibody, human IgG1, kappa, L234A L235A, N297A, name in Kabat numbering)
heavy: B1 heavy
chain: B1 chain
light: B1 light with V94G, T97Y
notes: One-arm antibody; substitution position in Kabat numbering; also called L chain altered form, Kabat 92 T to Y
B3: GLS3000 Q93S one-amino acid altered one-arm antibody (CE115HA000-pE22Hh / Kn010G3 / GLS3000 Q93S-kappa) (antibody, human IgG1, kappa, L234A L235A, N297A, name in Kabat numbering)
heavy: B1 heavy
chain: B1 chain
light: B1 light with V94G, Q98S
notes: One-arm antibody; substitution position in Kabat numbering; also called L chain altered form, Kabat 93 Q to S
B4: GLS3000 G91P one-amino acid altered one-arm antibody (CE115HA000-pE22Hh / Kn010G3 / GLS3000 G91P-kappa) (antibody, human IgG1, kappa, L234A L235A, N297A, name in Kabat numbering)
heavy: B1 heavy
chain: B1 chain
light: B1 light with V94G, G96P
notes: One-arm antibody; substitution position in Kabat numbering; also called L chain altered form, Kabat 91 G to P
B5: GLS3000 K74T one-amino acid altered one-arm antibody (CE115HA000-pE22Hh / Kn010G3 / GLS3000 K74T-kappa) (antibody, human IgG1, kappa, L234A L235A, N297A, name in Kabat numbering)
heavy: B1 heavy
chain: B1 chain
light: B1 light with K79T, V94G
notes: One-arm antibody; substitution position in Kabat numbering; also called L chain altered form, Kabat 74 K to T
B6: GLS3000 G89W one-amino acid altered one-arm antibody (CE115HA000-pE22Hh / Kn010G3 / GLS3000 G89W-kappa) (antibody, human IgG1, kappa, L234A L235A, N297A, name in Kabat numbering)
heavy: B1 heavy
chain: B1 chain
light: B1 light with V94W
notes: One-arm antibody; substitution position in Kabat numbering; also called L chain altered form, Kabat 89 G to W
B7: GLS3000 V94S one-amino acid altered one-arm antibody (CE115HA000-pE22Hh / Kn010G3 / GLS3000 V94S-kappa) (antibody, human IgG1, kappa, L234A L235A, N297A, name in Kabat numbering)
heavy: B1 heavy
chain: B1 chain
light: B1 light with V94G, V99S
notes: One-arm antibody; substitution position in Kabat numbering; also called L chain altered form, Kabat 94 V to S
B8: GLS3000 Q93Y one-amino acid altered one-arm antibody (CE115HA000-pE22Hh / Kn010G3 / GLS3000 Q93Y-kappa) (antibody, human IgG1, kappa, L234A L235A, N297A, name in Kabat numbering)
heavy: B1 heavy
chain: B1 chain
light: B1 light with V94G, Q98Y
notes: One-arm antibody; substitution position in Kabat numbering; also called L chain altered form, Kabat 93 Q to Y
B9: GLS3000 V94W one-amino acid altered one-arm antibody (CE115HA000-pE22Hh / Kn010G3 / GLS3000 V94W-kappa) (antibody, human IgG1, kappa, L234A L235A, N297A, name in Kabat numbering)
heavy: B1 heavy
chain: B1 chain
light: B1 light with V94G, V99W
notes: One-arm antibody; substitution position in Kabat numbering; also called L chain altered form, Kabat 94 V to W
B10: GLS3000 Q93P one-amino acid altered one-arm antibody (CE115HA000-pE22Hh / Kn010G3 / GLS3000 Q93P-kappa) (antibody, human IgG1, kappa, L234A L235A, N297A, name in Kabat numbering)
heavy: B1 heavy
chain: B1 chain
light: B1 light with V94G, Q98P
notes: One-arm antibody; substitution position in Kabat numbering; also called L chain altered form, Kabat 93 Q to P
B11: GLS3000 G89P one-amino acid altered one-arm antibody (CE115HA000-pE22Hh / Kn010G3 / GLS3000 G89P-kappa) (antibody, human IgG1, kappa, L234A L235A, N297A, name in Kabat numbering)
heavy: B1 heavy
chain: B1 chain
light: B1 light with V94P
notes: One-arm antibody; substitution position in Kabat numbering; also called L chain altered form, Kabat 89 G to P
B12: GLS3000 Q93R one-amino acid altered one-arm antibody (CE115HA000-pE22Hh / Kn010G3 / GLS3000 Q93R-kappa) (antibody, human IgG1, kappa, L234A L235A, N297A, name in Kabat numbering)
heavy: B1 heavy
chain: B1 chain
light: B1 light with V94G, Q98R
notes: One-arm antibody; substitution position in Kabat numbering; also called L chain altered form, Kabat 93 Q to R
B13: GLS3000 Q90S one-amino acid altered one-arm antibody (CE115HA000-pE22Hh / Kn010G3 / GLS3000 Q90S-kappa) (antibody, human IgG1, kappa, L234A L235A, N297A, name in Kabat numbering)
heavy: B1 heavy
chain: B1 chain
light: B1 light with V94G, Q95S
notes: One-arm antibody; substitution position in Kabat numbering; also called L chain altered form, Kabat 90 Q to S
B14: GLS3000 V94Q one-amino acid altered one-arm antibody (CE115HA000-pE22Hh / Kn010G3 / GLS3000 V94Q-kappa) (antibody, human IgG1, kappa, L234A L235A, N297A, name in Kabat numbering)
heavy: B1 heavy
chain: B1 chain
light: B1 light with V94G, V99Q
notes: One-arm antibody; substitution position in Kabat numbering; also called L chain altered form, Kabat 94 V to Q
B15: GLS3000 G91T one-amino acid altered one-arm antibody (CE115HA000-pE22Hh / Kn010G3 / GLS3000 G91T-kappa) (antibody, human IgG1, kappa, L234A L235A, N297A, name in Kabat numbering)
heavy: B1 heavy
chain: B1 chain
light: B1 light with V94G, G96T
notes: One-arm antibody; substitution position in Kabat numbering; also called L chain altered form, Kabat 91 G to T

Target: T1, CD3 epsilon homodimer protein (UniProt P07766 23-126)
T1 construct: also called CD3 (CD3 epsilon)
Test: SPR Biacore T200, CD3 epsilon homodimer immobilised on CM4, one-arm antibody as analyte, single-cycle kinetics; reference unaltered GLS3000 antibody;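 further: CD3 epsilon homodimer attached to the CM4 chip via amine coupling, measured at 25 °C with HBS-EP+ as running buffer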
Procedure: An appropriate amount of CD3 epsilon homodimer protein was immobilized onto Sensor chip CM4 (GE Healthcare Japan Corp.) by the amine coupling method. Then, the antibody having an appropriate concentration was injected thereto as an analyte and allowed to interact with the CD3 epsilon homodimer protein on the sensor chip. Then, the sensor chip was regenerated by the injection of 10 mmol/L glycine-HCl (pH 1.5). The assay was conducted at 25 degrees C., and HBS-EP+(GE Healthcare Japan Corp.) was used as a running buffer. […] Each parameter was calculated using Biacore T200 Evaluation Software (GE Healthcare Japan Corp.).
Specifically, when the amount of the GLS3000-containing antibody bound was defined as X and the amount of the L chain one-amino acid altered form bound was defined as Y, a value of Z (ratio of amounts bound)=Y/X was used.

T1 sequence (P07766 23-126): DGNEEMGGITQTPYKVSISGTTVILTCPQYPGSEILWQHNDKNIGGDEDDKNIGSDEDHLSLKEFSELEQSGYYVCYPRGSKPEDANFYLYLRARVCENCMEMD

Point of comparison: B5, “dissociation constant KD(M) ratio of L chain altered form to GLS3000” value 0.85 ratio. Against it:
- B1 — higher, 1.4 ratio
- B2 — higher, 2.55 ratio
- B3 — lower, 0.75 ratio
- B4 — higher, 23.1 ratio
- B6 — higher, 2.2 ratio
- B7 — lower, 0.81 ratio
- B8 — lower, 0.76 ratio
- B9 — higher, 1.81 ratio
- B10 — higher, 39.5 ratio
- B11 — higher, 1.8 ratio
- B12 — lower, 0.79 ratio
- B13 — higher, 0.96 ratio
- B14 — higher, 1.1 ratio
- B15 — higher, 39.9 ratio
